Key:
[1] = molecular target: cMet-Fc fusion protein (Homo sapiens, UniProt P08581); experiment: Protein phage ELISA: peptide-displaying phage binding to soluble cMet-Fc versus TRAIL-Fc; details: phage isolate; cMet-Fc vs. TRAIL-Fc
Protocol: Protein phage ELISAs using peptide-displaying phage isolates from the various selection campaigns were performed to determine specificity of the peptides for cMet versus an unrelated Fc-fusion protein (TRAIL-Fc). Briefly, 384-well plates were coated overnight at 4 C with 0.5 μg/mL of cMet-Fc fusion protein or TRAIL-Fc fusion protein (background). The plates were blocked for 2 hours 37C with 3% (w/v) BSA in PBS containing 0.05% (v/v) Tween-20 (PBST). The plates were washed with PBST and 100 μL of peptide-displaying phage were added to each well. The plates were incubated for 2 hours at room temperature and washed with PBST. cMet-binding peptide-displaying phage were detected using an HRP-conjugated anti-M13 antibody.

[2] = molecular target: T1, 3T3 cells that over-express human cMet (Homo sapiens, UniProt P08581); experiment: Whole cell ELISA of peptide-displaying phage; type: cell-based; details: phage isolate; 3T3 cells expressing human cMet vs. non-expressing 3T3 cells
T1 construct: expressed in transfected cells; host or cells: 3T3 cells
Protocol: Whole cell ELISAs were performed using 3T3 cells that over-express human cMet. […] Briefly, 96-well plates were seeded with 10^5 cells per well. The plates were centrifuged for 5 minutes at 1600 rpm to pellet the cells. The resulting cell layer was fixed with 0.1% (v/v) glutaraldehyde for 12 minutes at 37 C. […] Peptide-displaying phage also were blocked in the above solution for 1 hour at 37 C. 100 μL of blocked phage was then added to each well and the plates were incubated for 1 hour at room temperature. The plates were washed with PBST. cMet-binding peptide-displaying phage were detected using an HRP-conjugated anti-M13 antibody.

T1 sequence (P08581 25-1390): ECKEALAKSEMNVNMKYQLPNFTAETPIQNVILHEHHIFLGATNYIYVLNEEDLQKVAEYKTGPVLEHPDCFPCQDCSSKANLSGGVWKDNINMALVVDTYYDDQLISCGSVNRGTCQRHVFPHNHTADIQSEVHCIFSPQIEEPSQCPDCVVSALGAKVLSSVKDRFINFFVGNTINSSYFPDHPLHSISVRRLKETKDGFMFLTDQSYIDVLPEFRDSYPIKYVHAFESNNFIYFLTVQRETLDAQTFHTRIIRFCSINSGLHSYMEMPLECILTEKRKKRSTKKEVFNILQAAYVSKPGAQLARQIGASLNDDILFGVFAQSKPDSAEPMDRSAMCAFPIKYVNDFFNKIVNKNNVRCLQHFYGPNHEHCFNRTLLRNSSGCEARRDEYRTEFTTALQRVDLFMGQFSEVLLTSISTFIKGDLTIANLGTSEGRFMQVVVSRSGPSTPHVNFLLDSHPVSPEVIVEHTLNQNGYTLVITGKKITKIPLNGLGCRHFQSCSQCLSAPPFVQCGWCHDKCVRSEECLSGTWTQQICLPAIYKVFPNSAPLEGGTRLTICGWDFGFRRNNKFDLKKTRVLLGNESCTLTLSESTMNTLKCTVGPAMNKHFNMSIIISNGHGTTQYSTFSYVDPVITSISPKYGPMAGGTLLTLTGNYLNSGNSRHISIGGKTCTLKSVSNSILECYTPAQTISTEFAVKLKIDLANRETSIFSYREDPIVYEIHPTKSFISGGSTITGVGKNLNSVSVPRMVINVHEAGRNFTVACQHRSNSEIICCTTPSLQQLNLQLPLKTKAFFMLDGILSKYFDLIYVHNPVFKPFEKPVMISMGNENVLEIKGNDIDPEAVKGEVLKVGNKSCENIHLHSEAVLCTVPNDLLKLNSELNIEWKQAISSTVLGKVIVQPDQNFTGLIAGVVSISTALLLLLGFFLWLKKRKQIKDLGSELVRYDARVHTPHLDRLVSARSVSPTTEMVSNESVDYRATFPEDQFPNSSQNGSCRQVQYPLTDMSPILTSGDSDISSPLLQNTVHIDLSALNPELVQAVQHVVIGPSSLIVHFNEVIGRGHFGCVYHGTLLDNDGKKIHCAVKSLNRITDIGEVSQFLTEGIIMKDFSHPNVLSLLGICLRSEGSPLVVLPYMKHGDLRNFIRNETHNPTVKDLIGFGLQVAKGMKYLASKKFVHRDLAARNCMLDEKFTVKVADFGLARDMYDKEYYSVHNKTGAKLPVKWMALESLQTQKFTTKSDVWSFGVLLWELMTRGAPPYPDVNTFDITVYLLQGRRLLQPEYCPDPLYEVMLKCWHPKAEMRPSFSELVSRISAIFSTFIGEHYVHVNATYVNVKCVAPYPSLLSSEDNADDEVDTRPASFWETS
Sequence of cMet-Fc fusion protein (P08581 25-307 limits assumed): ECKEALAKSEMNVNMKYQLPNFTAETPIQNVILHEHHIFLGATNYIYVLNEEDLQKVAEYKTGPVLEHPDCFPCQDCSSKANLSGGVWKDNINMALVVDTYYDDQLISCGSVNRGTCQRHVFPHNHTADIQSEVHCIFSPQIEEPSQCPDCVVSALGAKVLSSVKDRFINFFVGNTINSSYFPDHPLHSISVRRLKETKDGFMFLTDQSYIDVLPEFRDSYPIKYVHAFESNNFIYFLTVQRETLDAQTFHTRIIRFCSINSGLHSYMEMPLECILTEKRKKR
Sequence of cMet-Fc fusion protein (P08581 with tags, fused parts or gaps limits assumed): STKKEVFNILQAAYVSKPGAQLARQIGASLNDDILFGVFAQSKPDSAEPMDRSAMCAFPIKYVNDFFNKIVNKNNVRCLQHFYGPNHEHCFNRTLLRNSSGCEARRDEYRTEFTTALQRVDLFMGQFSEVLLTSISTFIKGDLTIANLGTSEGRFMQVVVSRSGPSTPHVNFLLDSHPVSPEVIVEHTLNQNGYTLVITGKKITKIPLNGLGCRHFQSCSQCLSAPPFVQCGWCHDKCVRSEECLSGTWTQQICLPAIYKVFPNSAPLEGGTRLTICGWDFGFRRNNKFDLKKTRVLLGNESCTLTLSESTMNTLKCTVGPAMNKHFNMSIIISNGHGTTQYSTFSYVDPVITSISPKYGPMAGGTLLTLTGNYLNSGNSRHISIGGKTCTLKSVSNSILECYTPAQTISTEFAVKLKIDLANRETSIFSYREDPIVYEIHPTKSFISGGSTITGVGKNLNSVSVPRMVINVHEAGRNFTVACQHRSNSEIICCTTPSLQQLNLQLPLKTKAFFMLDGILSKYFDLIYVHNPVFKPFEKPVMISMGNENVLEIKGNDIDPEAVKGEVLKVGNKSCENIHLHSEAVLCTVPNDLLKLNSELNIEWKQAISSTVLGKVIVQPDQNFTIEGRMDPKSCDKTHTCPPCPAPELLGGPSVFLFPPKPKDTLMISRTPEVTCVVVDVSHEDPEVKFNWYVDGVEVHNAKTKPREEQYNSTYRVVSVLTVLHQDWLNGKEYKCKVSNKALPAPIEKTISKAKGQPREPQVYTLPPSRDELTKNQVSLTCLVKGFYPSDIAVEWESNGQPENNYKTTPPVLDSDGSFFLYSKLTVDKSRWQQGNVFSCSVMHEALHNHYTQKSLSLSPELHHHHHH

Row | Protein ELISA [1] [fold over background] | WC ELISA [2] [fold over background] | Compound
1 | 14.3 | 1.23 | CC[C@H](C)[C@H](NC(=O)[C@H](Cc1c[nH]c2ccccc12)NC(=O)CNC(=O)[C@H](C)NC(C)=O)C(=O)N[C@@H](CO)C(=O)N[C@H]1CSSC[C@@H](C(=O)N[C@@H](Cc2c[nH]c3ccccc23)C(=O)N2CCC[C@H]2C(=O)NCC(=O)NCC(=O)N[C@H](C(=O)NCC(=O)NCC(=O)NCC(=O)N[C@@H](CCCCNC(=O)c2ccc3c(c2)C(=O)OC32c3ccc(O)cc3Oc3cc(O)ccc32)C(N)=O)[C@@H](C)O)NC(=O)[C@H](C)NC(=O)[C@H](Cc2ccccc2)NC(=O)[C@H]([C@@H](C)O)NC(=O)[C@@H]2CCCN2C(=O)[C@@H]2CCCN2C(=O)CNC(=O)[C@H](C)NC1=O [SEQ ID NO: 056]
2 | 3.2 | 1.53 | CC[C@H](C)[C@H](NC(=O)[C@@H](NC(=O)[C@H](CCC(=O)O)NC(=O)[C@H](Cc1c[nH]cn1)NC(=O)[C@@H](NC(=O)[C@H](C)NC(=O)[C@@H]1CCCN1C(=O)[C@H](CC(N)=O)NC(=O)[C@H](Cc1ccccc1)NC(=O)[C@H](CCCCN)NC(=O)[C@H](Cc1ccccc1)NC(=O)[C@H](Cc1c[nH]cn1)NC(=O)[C@@H](NC(=O)[C@@H](NC(=O)[C@H](C)NC(=O)[C@H](CCSC)NC(=O)[C@H](CC(=O)O)NC(=O)[C@H](CCC(=O)O)NC(=O)[C@@H](NC(=O)[C@H](CCC(N)=O)NC(=O)[C@H](C)NC(C)=O)C(C)C)[C@@H](C)O)C(C)C)[C@@H](C)O)C(C)C)C(=O)N[C@@H](Cc1c[nH]c2ccccc12)C(=O)NCC(=O)NCC(=O)NCC(=O)N[C@@H](CCCCNC(=O)c1ccc2c(c1)C(=O)OC21c2ccc(O)cc2Oc2cc(O)ccc21)C(N)=O [SEQ ID NO: 492]
3 | 5.8 | 1.33 | AGYSVCKGYPSFECAFFGT (Synthetically generated cMet-binding peptide sequence) [SEQ ID NO: 075]
4 | 5.2 | 1.17 | GDHRKCEISAKTHEVTCYDNDP (Synthetically generated cMet-binding peptide sequence) [SEQ ID NO: 402]
5 | 5.6 | 1.10 | AGSIACTGWPYFSCIDLGT (Synthetically generated cMet-binding peptide sequence) [SEQ ID NO: 088]

Second part, the compound before the results:

Row | Compound | Protein ELISA [1] [fold over background] | WC ELISA [2] [fold over background]
6 | GSSHLCNPEFCHFTAP (Synthetically generated cMet-binding peptide sequence) [SEQ ID NO: 003] | 3.2 | 1.30
7 | AGVTNCNLSTMFCFLHGT (Synthetically generated cMet-binding peptide sequence) [SEQ ID NO: 026] | 3.8 | 1.30
8 | AQFSGLVMYGRTHEVQWTFGSM (Synthetically generated cMet-binding peptide sequence) [SEQ ID NO: 477] | 3.5 | 1.30
9 | CC[C@H](C)[C@H](NC(=O)CNC(=O)[C@H](Cc1ccccc1)NC(=O)[C@H](Cc1c[nH]c2ccccc12)NC(=O)[C@H](CO)NC(=O)CNC(=O)[C@H](Cc1c[nH]c2ccccc12)NC(=O)[C@H](Cc1ccccc1)NC(=O)CNC(=O)[C@H](CC(=O)O)NC(=O)[C@@H](NC(=O)[C@H](Cc1ccccc1)NC(=O)[C@H](Cc1ccc(O)cc1)NC(=O)[C@H](CCC(=O)O)NC(=O)[C@H](CCCNC(=N)N)NC(=O)[C@H](CCC(=O)O)NC(=O)[C@H](Cc1c[nH]c2ccccc12)NC(=O)[C@H](CCC(=O)O)NC(=O)[C@H](CCC(N)=O)NC(=O)[C@H](C)NC(C)=O)C(C)C)C(=O)N1CCC[C@H]1C(=O)N[C@@H](Cc1c[nH]cn1)C(=O)NCC(=O)NCC(=O)NCC(=O)N[C@@H](CCCCNC(=O)c1ccc2c(c1)C(=O)OC21c2ccc(O)cc2Oc2cc(O)ccc21)C(N)=O [SEQ ID NO: 472] | 3.7 | 1.80
10 | GDLLVCKFDDKFWTETCEWADP (Synthetically generated cMet-binding peptide sequence) [SEQ ID NO: 392] | 23.7 | 1.47
11 | CSCC[C@H](NC(=O)[C@H](Cc1ccccc1)NC(=O)[C@H](CCC(N)=O)NC(=O)[C@@H](NC(=O)[C@@H]1CCCN1C(=O)[C@H](CCSC)NC(=O)[C@H](Cc1c[nH]c2ccccc12)NC(=O)[C@@H](NC(=O)[C@H](CC(=O)O)NC(=O)[C@H](CCSC)NC(=O)[C@H](CCC(N)=O)NC(=O)[C@H](CCCNC(=N)N)NC(=O)[C@H](CCC(N)=O)NC(=O)[C@@H](NC(=O)[C@H](CO)NC(=O)[C@H](Cc1c[nH]cn1)NC(=O)[C@H](CCC(N)=O)NC(=O)[C@H](C)NC(C)=O)C(C)C)C(C)C)C(C)C)C(=O)N[C@@H](C)C(=O)NCC(=O)N[C@@H](Cc1ccccc1)C(=O)N[C@H](C(=O)NCC(=O)NCC(=O)NCC(=O)N[C@@H](CCCCNC(=O)c1ccc2c(c1)C(=O)OC21c2ccc(O)cc2Oc2cc(O)ccc21)C(N)=O)[C@@H](C)O [SEQ ID NO: 467] | 3.9 | 1.30
12 | AGKQWCVVWEETCDQLGT (Synthetically generated cMet-binding peptide sequence) [SEQ ID NO: 039] | 3.7 | 1.33
13 | AQEWQTWTWNMIEVISENKTP (Synthetically generated cMet-binding peptide sequence) [SEQ ID NO: 468] | 3.8 | 1.40
14 | CC(=O)N[C@@H](C)C(=O)NCC(=O)N[C@@H](CO)C(=O)N[C@@H](Cc1c[nH]c2ccccc12)C(=O)N[C@@H](Cc1c[nH]cn1)C(=O)N[C@H]1CSSC[C@@H](C(=O)N[C@@H](Cc2c[nH]c3ccccc23)C(=O)N[C@@H](CCC(=O)O)C(=O)N[C@@H](Cc2ccccc2)C(=O)NCC(=O)N[C@H](C(=O)NCC(=O)NCC(=O)NCC(=O)N[C@@H](CCCCNC(=O)c2ccc3c(c2)C(=O)OC32c3ccc(O)cc3Oc3cc(O)ccc32)C(N)=O)[C@@H](C)O)NC(=O)[C@H](CCC(=O)O)NC(=O)[C@H](Cc2ccccc2)NC(=O)[C@H](CO)NC(=O)[C@@H]2CCCN2C(=O)[C@@H]2CCCN2C(=O)CNC(=O)[C@H](C)NC1=O [SEQ ID NO: 055] | 18.3 | 1.47
15 | GDNRFCSWVYNVDDWWCVDNDP (Synthetically generated cMet-binding peptide sequence) [SEQ ID NO: 398] | 6.2 | 1.30
